Measured values published in US20220362394A1, “ANTI-BCMA ANTIBODY CONJUGATES” (SUTRO BIOPHARMA, INC., priority 2019, published 2022).
Changes are numbered by the printed parent chain.

T1: human BCMA-Fc (Homo sapiens, UniProt Q02223)
T1 construct: purchased R&D Systems
T1 sequence (Q02223 1-54 limits assumed): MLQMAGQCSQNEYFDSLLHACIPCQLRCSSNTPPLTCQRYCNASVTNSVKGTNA

B1: 11D6: chicken antibody, VH SEQ ID NO 198, VL SEQ ID NO 220 (antibody, V domains shown)
VH: AVTLDESGGGLQTPGGTLSLVCKASGFTFSSFNMFWVRQAPGEGLEWVAYIRNDGRSTSYGPAVKGRATISRDNGQSTVRLQLNNLRAEDTGTYFCAKTTCVGSGGCIDTWGHGTEVIVSS
VL: ALTQPSSVSANPGETVEITCSGGNSDYGWFQQKSPGSAPVTVIYRNNQRPSDIPSRFSGSGSGSTNTLTITGVQAEDEAIYYCGNVDFTDDVFGAGTTLTVL
modifications: Synthetic 11D6, VH; Synthetic 11D6, VL
B2: 10F4: chicken antibody, VH SEQ ID NO 203, VL SEQ ID NO 225 (antibody, V domains shown)
VH: AVTLDESGGGLQTPGGALSLVCKASGFTFSGYNMGWVRQAPGKGLEYVAGITYGTGSYTAYGAAVKGRATISRDNGQSTLRLQLNNLRAEDTATYYCARGGGLNSYGCSGANIDAWGHGTEVIVSS
VL: ALTQPSSVSANLGGTVKITCSGGGNYFGSYYYGWYQQKAPGSAPVTVIYNNNNRPSDIPSRFSGSTSGSTSTLTISGVRAEDEAVYFCGGFDSSTDAIFGAGTTLTVL
modifications: Synthetic 10F4, VH; Synthetic 10F4, VL
B3: 9A5: chicken antibody, VH SEQ ID NO 208, VL SEQ ID NO 230 (antibody, V domains shown)
VH: AVTLDESGGGLQTPGGAVSLVCKASGFSISDYGMGWMRQAPGKGLQYVARIDHDGRYTDYGAVVKGRATISRDNGQSTVRLQLNNLRAEDTGTYYCTRGGGAASIDTWGHGTEVIVSS
VL: B2 VL with L12P, G14E, F27V, S29G, P44L, V47L, D57N, S76T, G90S
modifications: Synthetic 9A5, VH; Synthetic 9A5, VL
B4: 9E12: chicken antibody, VH SEQ ID NO 209, VL SEQ ID NO 231 (antibody, V domains shown)
VH: AVTLDESGGGLQTPGGGLSLVCKASGFTFSDYGLGWMRQAPGKGLEYVARINSAGSGTYYGSAVDGRATISRDNGQSTVRLQLNNLRAEDTGTYYCTRGGGGASIDGWGHGTEVIVSS
VL: B2 VL with L12P, G14E, N25S, F27Y, A39S, V47L, S71G, S76T, F87Y, G90S
modifications: Synthetic 9E12, VH; Synthetic 9E12, VL
B5: 9H1: chicken antibody, VH SEQ ID NO 210, VL SEQ ID NO 232 (antibody, V domains shown)
VH: AVTLDESGGGLQTPGGALSLVCKGSGFTFSDYGMGWMRQAPGKGLQYVARINSAGSDTNYGSAVKGRATISRDDGQSTVRLQLSSLRAEDTGIYYCTRGGGGASIDGWGHGTEVIVSS
VL: B2 VL with L12P, G14E, N25S, F27Y, A39S, V47L, S71G, S76T, F87Y, G90S
modifications: Synthetic 9H1, VH; Synthetic 9H1, VL
B6: 10H1: chicken antibody, VH SEQ ID NO 211, VL SEQ ID NO 233 (antibody, V domains shown)
VH: B4 VH with G17A, D31G, L34M, G57D, Y59D, S62A, D65K, G92A, Y95F
VL: B2 VL with L12P, G14E, F27Y, D57N, T66K, S71G, S76T, R79Q, T95S
modifications: Synthetic 10H1, VH; Synthetic 10H1, VL
B7: 10E10: chicken antibody, VH SEQ ID NO 212, VL SEQ ID NO 234 (antibody, V domains shown)
VH: AVTLDESGGGLQTPGGGLSLVCKASGFTFSSYGMGWMRQAPGKGLEFVARINSGGSSYTDYGSAVKGRATISRDDGQSTVRLQLNNLRAEDTGIYYCTRGGGGASIDGWGHGTEVIVSS
VL: B2 VL with L12P, G14E, F27A, A39S, V45L, N51S, T66L, S71G, S76T
modifications: Synthetic 10E10, VH; Synthetic 10E10, VL
B8: 9A8: chicken antibody, VH SEQ ID NO 196, VL SEQ ID NO 218 (antibody, V domains shown)
VH: B1 VH with E43K, R56N, T58A, G92A, F95Y, V102I
VL: B1 VL with E17K, N24S, R45S, D52G, G61K, N66G, G84A, F88Y
modifications: Synthetic 9A8, VH; Synthetic 9A8, VL
B9: 10G5: chicken antibody, VH SEQ ID NO 197, VL SEQ ID NO 219 (antibody, V domains shown)
VH: B1 VH with T17V, E43K, R52S, R56S, G92A, V102I
VL: B1 VL with E17K, S25Y, F30Y, V42L, R45Y, Q48K, G61K, N66G, G84A, F88S
modifications: Synthetic 10G5, VH; Synthetic 10G5, VL

Legend:
U266B1 = assay: Cell killing with drug-conjugated 2° antibody (internalization), U266B1; assay type: cell-based, human; conditions: Conjugate P 2° antibody 20 nM, 72 hrs
Method: (§1) The internalization of the antibodies was evaluated by drugs conjugated to secondary antibodies in a cell killing assay on BCMA positive cells. BCMA-positive cell lines ARP-1 and U266B1 were used to screen for internalizing leads. Cells were washed twice with calcium and magnesium-free Dulbecco's phosphate-buffered saline (DPBS), harvested with Accutase® (Innovative Cell Technologies; San Diego, Calif.) and counted by the Vi-CELL Cell Viability Analyzers (Beckman Coulter, Brea, Calif.). A total of 12,500 cells in a volume of 25 microliter were seeded in a 384-well flat bottom white polystyrene plate (Greiner Bio-One, Monroe, N.C.) on the day of assay. Lead antibodies were formulated at 4× starting concentration in the cell culture medium and filtered through MultiScreenHTS 96-Well Filter Plates (Millipore; Billerica, Mass.). 12.5 μL of the serial diluted antibody (1:3 serial dilution starting from 100 nM) was added into treatment wells and 12.5 μL of an anti-human nanobody conjugated to according to Conjugate P (hemiasterlin via a cleavable linker) or according to Conjugate M (maytansinoid via a non-cleavable linker) was then added into each well at a fixed final concentration of 20 nM. […] Data was fitted with non-linear regression analysis, using a log(inhibitor) vs. response-variable slope, 4 parameter fit with GraphPad Prism (GraphPad v 5.0, Software; San Diego, Calif.). Data was expressed as relative cell viability (ATP content) % vs. dose of antibody.

human BCMA-Fc = target: T1, human BCMA-Fc; assay: Biacore kinetics, human BCMA-Fc; assay type: binding; conditions: 25° C., 1-1 Langmuir model
Method: Anti-Fab or anti-Fc polyclonal antibodies were immobilized onto a CM5 chip (GE Life Sciences) using amine coupling chemistry (from Amine Coupling Kit, GE Life Sciences). The immobilization steps were carried out at a flow rate of 25 μL/min in 1×HBS-EP+ buffer (GE Life Sciences; 10× Stock diluted before use). The sensor surfaces were activated for 7 min with a mixture of NHS (0.05 M) and EDC (0.2 M). The anti-Fab or anti-Fc antibodies were injected over all 4 flow cells at a concentration of 25 μg/ml in 10 mM sodium acetate, pH 4.5, for 7 min. Ethanolamine (1 M, pH 8.5) was injected for 7 min to block any remaining activated groups. An average of 12,000 response units (RU) of capture antibody was immobilized on each flow cell.
Off-rate and kinetic binding experiments were performed at 25° C. using 1×HBS-EP+ buffer. Test and control antibodies were injected over the anti-Fab or anti-Fc surface at concentrations of 5-10 μg/mL for 12 seconds at a flow rate of 10 μL/min on flow cells 2, 3 and 4, followed by a buffer wash for 30 seconds at the same flow rate. […]
The data was fit with the Biacore T200 Evaluation software, using a 1-1 Langmuir binding model. KD (affinity, nM) was determined as a ratio of the kinetic rate constants calculated from the fits of the association and dissociation phases.

ARP-1 = assay: Cell killing with drug-conjugated 2° antibody (internalization), ARP-1; assay type: cell-based, human; conditions: 72 hrs; for Span (%): Conjugate P 2° antibody 20 nM; for EC50: Conjugate P 2° antibody (hemiasterlin, cleavable linker) 20 nM
Method: as §1

| Molecule | EC50 (U266B1) [nM] | Span (%) (U266B1) | ka (human BCMA-Fc) [M⁻¹ s⁻¹] | kd (human BCMA-Fc) [s⁻¹] | Span (%) (ARP-1) | EC50 (ARP-1) [nM] |
| --- | --- | --- | --- | --- | --- | --- |
| B1 | 1.1 | 67 | 1.02e+06 | 0.000318 | 83 | 3.8 |
| B2 | 0.36 | 81 | – | – | 87 | 1 |
| B3 | 0.29 | 84 | – | – | 93 | 0.7 |
| B4 | 1.4 | 47 | – | – | 80 | 1.2 |
| B5 | 1.1 | 50 | – | – | 74 | 1.3 |
| B6 | 0.29 | 89 | – | – | 88 | 0.86 |
| B7 | 2.5 | 20 | – | – | 46 | 3 |
| B8 | 2.3 | 42 | – | – | 82 | 2.4 |
| B9 | 1.9 | 63 | – | – | 82 | 3.5 |
